Measurements: the supplement of paper PMC9170038

Test system: K4 kissing-loop RNA reporter
Assay: apparent KD of K4 kissing-loop reporter; higher = weaker reporter binding
Conditions: Eterna round: R107
Protocol: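 RNA-MaP round R107: designed RNA switches with theophylline, tryptophan, arginine or FMN aptamers are transcribed on-chip within common flanks. They are titrated with a labelled K4 kissing-loop RNA reporter in RNA-MaP buffer (100 mM Tris pH 7.5, 80 mM KCl, 4 mM MgCl2), without ligand or with the indicated ligand. Median apparent KD per design.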

[1] = input ligand: theophylline 20 uM
[2] = input ligand: tryptophan 2.4 mM
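Also: bound reporter read as fluorescence of individual clusters on recovered sequencing chips by microscopy, with normalized cluster intensities fitted with a binding model.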

Row | Sequence | apparent KD of K4 kissing-loop reporter (input ligand: FMN 200 uM) [nM] | apparent KD of K4 kissing-loop reporter (input ligand: arginine 13.2 mM) [nM] | apparent KD of K4 kissing-loop reporter (input ligand: none) [nM] | apparent KD of K4 kissing-loop reporter [1] [nM] | apparent KD of K4 kissing-loop reporter [2] [nM]
1 | GUCAUCAGAUCGCAAGAUCUGAUAGCCGAUACCAGCGCGAAGGUGCGCCCUUGGCAGCGGCACCGAGUGAUGUUCGGUCAGACGG [#2 Same State - Theophylline A Attempt #4 (HarryS)] | 658 | 796 | 776 | 440 | 594
2 | GCGGCGGGCCAAGGAUAUAUUUUGGAGUGAUGUUGUUCAUUUAUUUGAGCUAGUGAUGUUGGUCGAAUAGAAGGUGGCCCGCCGC [whbob_Ex_FMNB__2th219] | 65.8 | 29.4 | 56.9 | 35.9 | 46
3 | GGAGUUACCUGGGAUACCAGUCGGAGGCCCAGAGCUCGGAGUGAUGUUCUGGGAUGUUUCGGCCCUUGGCAGCUCUGGGUCUCCG [#2 Exclusion - Theophylline B Attempt #4 (HarryS)] | 822 | 452 | 583 | 648 | 571
4 | UGAUUGCCAGUGAUGUUGGCAGUUUCUGAAGGAGCGCGUGAAAACGCAGGUAGGUCGCAGAUUAGUGCCAAUUGAUCGAAAGAUC [KL-XArg-A4] | 208 | 227 | 214 | 193 | 205
5 | AUUAAUAACUGAGGAUAUCGUUUUACUGUAGUGAUGUUACAGAAAGUUCAAAUUAUAAUUUCUAUUCGAGAAGGCAGAAUAAUUA [JR_SSFMNB_Sub026] | 77.7 | 68.9 | 53.5 | 62.8 | 48.1
6 | AGGCCACACAGCGAGUGAUGUUUGCGUUAUCGAGGACCGGUACGGCCGCCACUCGGCCUUUAGCGCCUUACCAAUUAGGUGUUGC [theeternabot_sameState_KL_Trp_A_46] | 453 | 430 | 731 | 556 | 647
7 | UUAGUUGAAAGUGAUACCAGACGAGUGAAGGGAAGAAAUUAAGUUGGAGUGAUGUUCCGCGUCCCUUGGCAGCACUUUGUAAUUU [Exclusion Theophylline B GF 22] | 135 | 151 | 125 | 161 | 121
8 | UAGUAUAAUCUGUCGUUUACAAUAUUUAGUCAGGAUAUCGUAUAUUCGAGAAGGGACACUAUCUAGUGAUGUUAGAUAUUUCUUU [JR_ExcFMNA_Sub013] | 46.8 | 78.2 | 54.9 | 71.4 | 52.8
9 | UCGGUAUAGUGAUGUUAUAUAGAGAGUGAUACCAGUUUAGAGAGAAACCCUUGGCAGCAUAGAAGAGUAUCAUUGGAGGAGGAGG [#20 K4 Theophylline A Exclusion] | 455 | 417 | 387 | 336 | 301
10 | AGGGUAAGGCGUUAACAUGACACCUGGGAAGGAGCGCGGUACACCGCAGGUAGGUCGCCCAGUGAUGUUGGGCGUAAGUAUGAGU [KL-XArg-A22] | 137 | 179 | 185 | 180 | 137
11 | UGAUACCAGGCGGCCGCCACUCCUACAGGUCAAAGACCUGUAAAACUGGUUUUUUAGUGAUGUUGGAGGACCGGGCCUGGUAUCU [FiskerMod 28 - Jieux - Exclusion - Tryptophan B] | 181 | 108 | 178 | 183 | 177
12 | UCGGCGUACGGGCGGGUAGUGAUGUUGCUCCGAGGACCGGUACGGCCGCCACUCGAGGUACCAGUUCAUAGAACCUGGCACAUCA [theeternabot_exclusion_KL_Trp_A_23] | 409 | 296 | 541 | 261 | 266
13 | AUUCACCUGUCGGCCGCCACUGCGUUAGCAGUAUCGGGCAGAAACUUCGCAGUGAUGUUGCGACUCAGGACCGGGACGUUGAGGA [theeternabot_exclusion_KL_Trp_B_29] | 445 | 406 | 468 | 454 | 504
14 | ACUUUGGGCCCAGUGAUGUUGGGUCCAGAUACCAGACGUAAAUAAGUCCCUUGGCAGCUGCGUACUAACUAGCACAGGAGGGUCC [Edleaes] | 135 | 143 | 150 | 154 | 141
15 | GGGUUGAACUGAAGGAGCGAGAAAUAGAAAGUAAGAAGAUAAGCUAGUGAUGUUAGAAAUUCUCAGGUAGGUCGCAGUAAGAAUU [V3] | 338 | 325 | 354 | 280 | 258
16 | GCAUCGAUGGCAGGAUAUAGGUUCGUGGAGUGAUGUUCCAUAGCCCGAGUGAUGUUCGUUAUCCGCCUAGAAGGGCCGUGGAUGC [whbob_Ex_FMNB__2th215] | 263 | 210 | 297 | 221 | 244
17 | ACAGGAUCGAAAGAUCCUGAGCAGUCAAACCGAGGACCGGUACGGCCGCCACUCGGAGUGAUGUUCCGAAGACUGCAAAAUAAAA [#SwitchBubble 1] | 539 | 707 | 1120 | 406 | 334
18 | UUUGGUUUCUCGGCCGCCACUCGUGGGAAAUGGGCCUCAGGGAUAUAGUGAUGUUAUGUAAAGAAGAGGACCGGGAGAAGGAAGG [ExTryptoB.Dl] | 300 | 253 | 306 | 208 | 233
19 | AAACCAAUCAGAGGAUAUUCUUUAUUCGACAUAACCUUCUAUAAGGUGCAGUGAUGUUGCAAUAUAGGAGAAGGCUGAUUGACAA [Exclusion FMN B Gf 13] | 232 | 338 | 516 | 488 | 413
20 | UAGGAGUGAUGUUCCUAUAGCAGGUAGGAAGGAGCGCCCAUUUGGGCAGGUAGGUCGCCUACCGGCCCUAAGUUAAACCUUAGGC [Rariar] | 99.6 | 111 | 92.6 | 109 | 89
21 | UGAUACCAGACUGAUACCAGCCAGUGAUGUUGGCUAAAACCAAAAGCUGGCAAAGCCAGCGGCCCUUGGCAGCAGUCUGGUAUCU [TheoBX 1 #SwitchBubble #StaticStem] | 816 | 694 | 806 | 1010 | 667

Row | Sequence | apparent KD of K4 kissing-loop reporter (input ligand: FMN 200 uM) [nM] | apparent KD of K4 kissing-loop reporter (input ligand: arginine 13.2 mM) [nM] | apparent KD of K4 kissing-loop reporter (input ligand: none) [nM] | apparent KD of K4 kissing-loop reporter [1] [nM] | apparent KD of K4 kissing-loop reporter [2] [nM]
22 | CUAUGGAAACAUAGUGAUCGGGAAACCGAUACCAGUAUGGAAACAUACCCUUGGCAGCGGAAUGAUCUAACGGAGUGAUGUUCCG [Theophylline A K4 23] | 492 | 456 | 574 | 389 | 496
23 | GUGGCACGAAAGUGCCACGCAUCCUCUCCCUAGGAUAUCUGGAAACAGAGAAGGAGGUCAUGAGUGAUGUUCAUCCAGAGGAUGC | 258 | 677 | 756 | 738 | 491
24 | GGUCCGCGGUCGGCCGCCACUGAACAAGACCAGUGAUGUUGGAUCUUCCAGUGCGUUGGCUUUAACAGGACCGGGACCGUGGAGC [Titia] | 139 | 132 | 145 | 140 | 164
25 | CGAUCUGAUAGCAGUGAUGUUGCUACAGAUACCAGUCCAGAUCGAGACCCUUGGCAGCUGACCCGGCAUGUGCUAUGGUAGAUCG [Theo A Ex t1] | 156 | 127 | 155 | 154 | 146
26 | UGUCAUUGGUCGGCCGCCACUUCGUGUGGAGUGAUGUUUUGUAGGUUGUGUUGAAAGGUAUGGUGAAGGACCGGGACCGAUGACU [FiskerMod 20 - Jieux - Same State - Tryptophan B] | 651 | 384 | 496 | 1080 | 525
27 | AGGUCACCACUACAGUGAUGUUGUAGGGAGCAGGAUAUGCAGAAAUGCAGAAGGGCUCGCUCCCGGUGACCGAAUGAAACAUUCA [Omei KL FMN A SS A v6] | 432 | 258 | 318 | 289 | 282
28 | UAUUCUUAUCUUAGUUGAUUUCUAAUUAAACGAGGACCGGUACGGCCGCCACUCGGUUAUGAGUGAUGUUCAUGGAAUUACAUAA [JR_SSTryptoA_Sub020] | 275 | 481 | 413 | 548 | 143
29 | AAAAUAAAGCAGUGAUGUUGCAUAUGAGAAGGAGCGCACGAAAGUGCAGGUAGGUCGCUCAGCCAAGUGGACGAAAACGUCCACA [#OpenEnded 9 #K4Early] | 107 | 172 | 119 | 168 | 93.7
30 | UCGAAAUGCGACUCCUAGUUACACCGGGAAGGAGCGUGGAUAACCGCAGGUAGGUCGCCCGGAAGCCGGACCAGUGAUGUUGGUC [Exclusion Arginine A Gf 28] | 207 | 177 | 203 | 274 | 155
31 | AAGCAGUCACUCGUAUCCAUCGAAGAUGGUCGAGGACCGGUACGGCCGCCACUCGGAGUGAUGUUCCGAAGACUGCAAAAUAAAA [#SwitchBubble 13] | 240 | 230 | 250 | 296 | 348
32 | AGCAGUGAUGUUGCAUUUAUAAUGACCGAUACCAGUAUCGAUAGAUACCCUUGGCAGCGGAUUUCCGCAACGACUAGGAAACUAG [Ex Theophylline A K4 14] | 305 | 359 | 355 | 508 | 283
33 | UGAUACCAGACGGCCGCCACUGGGACCGGGAGUGAUGUUCCAAAUAAAAGAAGCUCGGCCGCCACUAGGACCGGGUCUGGUAUCU [TrypBX 21 #DoubleAptamer #SwitchBubble] | 395 | 261 | 339 | 367 | 182
34 | AAAUAGGUGUGCGAUACCAGCCGGAGUGAUGUUCCGUGUUGUACUGGCUGCACCUACGCCGGCCCUUGGCAGCGUGCUCCAUUUA [Enonin] | 177 | 140 | 169 | 263 | 148
35 | AUGGUGGAGGAGUGAUGUUCUUGGAGUAGGUAGGAUAUGAGUGAUGUUAGAAGGAUCGGAGUGAUGUUCCAGGUGGUUGUGUUGU [KL-SSFMN-A2] | 570 | 303 | 765 | 453 | 412
36 | UUUCGUCUCUGAGGAUAUCAGACGAGAGUGAUGUUCUCCCAAAGCCCAGUGAUGUUGGAUGCUAUCUGAGAAGGCAGUGGGCGAA [Same State FMN B GF 12] | 227 | 584 | 554 | 634 | 508
37 | GUAGGAUGAGGAGGAGGAUGAAUUACUGAAGGAGCGCAUAUAAAUGCAGGUAGGUCGCGGUAAAGAAGUAUAGUGAUGUUAUAUA [SSArgA.G] | 421 | 636 | 580 | 438 | 329
38 | GGUAGCAUGAUGGAUACCAGUCCAAAUGGAGUGAUGUUCCAACAACAGGUUAGGCUGCUGGACCCUUGGCAGCCGUCAUGCUACC | 141 | 120 | 160 | 121 | 133
39 | AAGGUAUCACCAACAUUGCAAGAAGGUGAUACCAGCAUCGAAAGAUGCCCUUGGCAGCACCAACUUGCAGUGAUGUUGCAAGUAA [(T)'-(H)'-(T1)-(T2)-(H1)-(H2)_Design8] | 274 | 210 | 267 | 213 | 226
40 | AUGCGCGUGCGAUGAAAAUCGCACGCGCAUCGAGGACCGGUACGGCCGCCACUCGCUCGCGCCGAGUGAUGUUCGGCCGGCGAAC [#2 Same State - Tryptophan A Attempt #4 (HarryS)] | 278 | 268 | 267 | 217 | 506
41 | AAGUGAUGUUGUAGUGAUGUUGUGAUGUUGCAGGAUAUAUAGUGAUGUAGAAGGGUAAGUACUGAUGUUGUUUGUGAGUGAUGUU [zrrszrmullin] | 99.2 | 44.9 | 78.6 | 66.9 | 76.2
42 | GGCGAAUAAAAUCGCCUAGAGAGAAAGGAUACCAGCACCCGGCGGUGCCCUUGGCAGCCUAGCCCAGUGAUGUUGGGUCCUCUAA [Biaveinbe] | 263 | 121 | 140 | 345 | 206
